In the nanobody polyreactivity screen of Harvey et al. (2022):

Assay: yeast display, Sf9 membrane polyspecificity reagent, FACS + sequencing; frameworks hold sequencing errors
Outline: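 Nanobodies came from a synthetic yeast display library in Saccharomyces cerevisiae BJ5465, induced with galactose for 36–48 hours and stained for 1 hour at 4 °C with 10% biotinylated, detergent-solubilized Sf9 membrane reagent. Cells were enriched on streptavidin microbeads and then FACS-sorted, with low and high (top ~1%) gates set on anti-HA fluorescence for expression and streptavidin fluorescence for reagent binding. Each polyreactivity label reflects the gate a clone came from. Genes were amplified by colony PCR, sequenced by MiSeq 2 × 250 and filtered by CDR length.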

Sequence	polyreactivity (PSR sort gate)
QVQLVESGGGLVQAGGSLRLSCAASGIILVRNAMGWYRQAPGKERELVAAISKSGGRTYYADSVKGRFTISRDNAKNTVYLQMNSLKPEDTAVYYCNVLTYHDFDYWGQGSQVTVSS	high polyreactivity
QVQLVESGGGLVQAGGSLRLSCAASGSTLGAYAMGWYRQAPGKERELVAAITYSTGSTYYADSVKGRFTISRDNAKNTVYLQMNSLKPEDTAVYYCAAATYQSRYFQRFDCWGQGTQVTVSS	high polyreactivity
QVQLVESGGGLVQAGGSLRLSCAASGSTFGYYAMGWYRQAPRKERELVAVITRGGSTYYADSVKGRFTISRDNAKNTVYVQMNSLKPEDTAVYYCNARVQAVHYGYWGQGTEVTVSS	high polyreactivity
QVQLVESGGGLVQAGGSLRLSCAASGRTFYSYAMGWYRQAPGKERELVAAISRGGNTYYADSVKGRFTISRDNAKNTVSLQMNSLNPEDTAVYYCAVVRVTYYASIYHRGYDYWGQGTQVTVSS	low polyreactivity
QVQLEESGGGLVQAGGSLRLSCAASGYILNDYTKGWYRQAPGKERELVAAITSSGDRTYYADSVKGRFTISRDNAKNTVYLQMNSLNPEDTAVYYCAADIYLGDYYYWGLGTQVTVSS	low polyreactivity
QVQLVESGGGFVQAGGSLRLSCAASGFTFYKYAMGWYRQAPGQERELVAAITRGGGSTYYADSVKGRFTISRDHAQNPVYLQKNRLIPEDPAVYYCNVLYGYGTDVSRVDYWGQGTQVTVSS	high polyreactivity
QVQLVESGGRLVQAGGSLRLSCASSGFTFRYYAMGWYRQAPGKERELVASITGNGGSTYYADSVKGRFTISRDNAKNTVFLHMNSLKPEDTAVYYCNARVRGYYEYNYWGQGTQVTVSS	high polyreactivity
QVQLVESGGGLVQAGGSLRLSCAASGRTFLINAMGWYRQAPGKERELVAAINYGGGSTYYADSVKGRFTISRDNAKNTVYLQMKSLKPEDTAVYYCSTEYYDTYVGSYSYWGAKYGSWGQGTQVTVSS	low polyreactivity
QVQLVESGGGLVQAGGSLRLSCAASGSTLSYNAMGWYRQAPGKERELVAAISGRGGSTSYADSVKGRFTISRDNAKNTVYLQMNSLKPEDTAVYYCNRYSRSAYEWEYYSWGQGTQVTVSS	high polyreactivity
LVQHQESGGGLVQAGGSLRLSCAASGTIFLRYYMGWYRQAPGKQREFVAAINIGATANYADSLKGRFTISRDNAKNTVYLQMKSLYPQDTAVYYCAVYYPIYRQHDYWGQGSQVTVSS	low polyreactivity
QVQLVESGGGLVQAGGSLRLSCAPSGSIFAYYAMGWYRPAPGKERELVAAISKSGGRTYYADSVKGRFTISRDNAKNTVYLQMNSLKPEDTAVYYCAADGPGYTYDYWGQGTQVTVSS	high polyreactivity
QVQLVESGGGLVQAGGSLRLSCAASGRIFYLNAMGWYRQAPGKERELVAAMSGSTGSTYYADSVKGRFTISRDNAKNTVYLQMNSLKPEDTAVYYCNAVLSSNTKWRYPGDYWGQGTQVTVSS	low polyreactivity
QVHLVDSGGGLVQAGGSLRLSCAASGYIFPYNAMGWYRQEPGKERELVATITGTGGSTYYADSVKGRFTISRDNAKITVYLQMNSLKPEDTAVFYCAADLSIRYDHEYGYWGQGTQLTVSS	low polyreactivity
QVQLVESGGGLVQAGGSLRLSCAASGRIFTYYAMGWYIQAPGKERELVASITGSGGSTDYADSVKGRFTISRDNAKNTVYLQRNSLKPEDTAVYYCAADGLSYGPLYNYDYWGQGTQVTVSS	low polyreactivity
QVQLVESGGGLVQAGGSLRLSCAASGRTFRLYALGWYRQAPGKERELVAAIRSSGGRTYYADSVKGRFTISRDNAKKTVYLQINSLKPEDTAVYYCATTSGLIGYYWKYNYWGQGTQVTVSS	high polyreactivity
QVQLVESGGGLLQAGGSLRISCAASGIIFRLYDMAWYRQAPGKERELVAAISSGGSTYYADSVKGRFTISRDNAKNTVYLQMNSLKPVDTAVYYCNARVRYKRTGRYGYWGQVTQVTVSS	high polyreactivity

Sequence	polyreactivity (PSR sort gate)
QVQLVESVGGLVQAGGSLRLSCAASGSIRYYAMGWYRQAPGKERELVAAISSRGTNTYYADSVKGRFTISRDNAKNTVYLQMNSLKPEDTAVYYCNAVVGLGYNYWGQGTQVTVSS	high polyreactivity
QVQLQESGGGLVQAGGSLRQSYAASGYIFPSLAMGWYRQAPGKEREFVAAIGRGSTNNYADSVKGRFTISRDNAKNTAFQHMKSLKPEDTAVYYCAAAASPLTRHLYWGQGTQVSVSS	low polyreactivity
QVQLVESGGGLVQAGGSLRLSCAASGSTFIYYTMGWYRQAPGKERELVAASSWSGGNTYYADSVKGRFTISRDNAKNTVYLQMNSLKPEDTAVYYCAATRFSQYDWGQGTQVTVSS	high polyreactivity
QVQLVESGGGLVQAGGSLRLSCAASGSIFHGYAMGWYRQAPGKERELVAAISYTGGRTYYADSVKGRFTISRDNAKNTVYLQMNSLKPEDTAVYYCADDSQLTKFYYWGQGTQVTVSS	high polyreactivity
QVQLVESGGGLVQAGGSLRLSCDASGRIFQPNVMGWYRQAPGKERELVAAIRSGSSTYYADSVKGRFTISRDNAKNTFYLQMNSLKPEDTAVYYCATRYRKQYKPYEYWGQGTQVTVSS	high polyreactivity
QVQLVESGGGLVQAGGSLRLSCAASGFTFKWYTMGWYRPAPGKERELVAGISRRGGSTYYADSVKGRFTISRDNAKNTVYLQMNSLKPEDTAVYYCARRFLYPYDHWGQGTQVTVSS	high polyreactivity
EVQLVESGGGLFQAGGSLRLSCAASGFTFYRYAMGWYRQAPGKERELVAGITWGGGRTYYADSVKGRFTISRDNAKNTVYFQMNSLKPEATAVYYCAAYYSQDSRRKYDYWGQVTQVTVSS	high polyreactivity
QVQLVESGGGLVQAGGSLRFSCAASRFNFYDYVMGWYRQAPGKYRELVAAISSNGGSTYYADSVKGRFTISRDNAKNTVYFQMYSLKPEDTAVYYCAVTENSKSNKIRPDQGDYWGQGTQVTVSS	high polyreactivity
QVQLVESGGGLVQAGGSLRLSCAASGLIFYGYVMGWYRHAPGKERELVAGISRNYGSTYYADSVKGRFTISRDNAKHTVYLQMNSLKPEDTAVYYCAALTFEAWAGEDYWGQGTQVTVTS	low polyreactivity
QVLLVESGGGLVQAGGSLRLSCAASGYIFNRYVMGWTIQAPGKERELVAAIYIRGGSTFYSDSVKGCFTISRDNAKYTVYLQMNSLKPDDSAVYYCDDGRYGDYGYWGQGTQLTVSS	high polyreactivity
QVQLVESGGGLVQAGGSLRLTCAASGSIFPDNAMAWYRQAPGNERELVAAITSSGGSTYYADSVKGRLRISRDNAKNTVYLQMNSLKPADSAVYYCAKGRSYSVAKRRLYKYWGQGTEVTVSS	high polyreactivity
QVQLVESGGGLVQAGGSLRLSCAASGSTFEGNAMGWYRQAPGKERELVAAITSGGSTNYADSVKGRFTISRDNAKNNVYLQMNSLKPEDTAVYYCAADTVSFSILYDYWGQGTQVTVSS	low polyreactivity
QVQLVESGGGLVQAGGSLRLSCAASGRIFVLYTMGWYRQAPGKERELVAAISRRGGNTNYADSVKGRFTISRDNAKNTVYLQMNSLKPEDTAVYFCNARWTGARYYYYPMDYWGQGTQVTVSS	high polyreactivity
QVQLVESGGGLVQAGGSLRLSCAASGITFDYYAMGWYRQAPGKERELVAAISGGDSTNYADSVKGRFTISRDNEKNTVYLQMNSLKPEDTAVYYCNVQYSGLYWSYRIDFDYWGQGTQVTVSS	high polyreactivity
QVQLVESGGGLVQAGGSLRLSCAASGFIFYYYAMGWYRQAPGKERELVAAITSGGGTTYYADSVKGRFTISRDNAKNTVYLQMNSLKPEDTAVYYCNADSYYNSWFYYFDGFDGDYWGQGTQVTVSS	high polyreactivity
QVQLVESGGGLVQAGGSLRLSCAASGSIFRAYAMGWYRQAPGKEMELVAAISSGVSTNYADSVKGRFTISRDNAKNTVYLQMNSLKPEDTAVYYCNTDKYSESYRSYEYWGQGTQVTVSS	low polyreactivity
